In paper doi:10.1101/2025.01.27.635082 (bioRxiv, 2025):

B1: human phosphomannomutase 2 (hPMM2) (enzyme)
chain: MAAPGPALCLFDVDGTLTAPRQKITKEMDDFLQKLRQKIKIGVVGGSDFEKVQEQLGNDVVEKYDYVFPENGLVAYKDGKLLCRQNIQSHLGEALIQDLINYCLSYIAKIKLPKKRGTFIEFRNGMLNVSPIGRSCSQEERIEFYELDKKENIRQKFVADLRKEFAGKGLTFSIGGQISFDVFPDGWDKRYCLRHVENDGYKTIYFFGDKTMPGGNDHEIFTDPRTMGYSVTAPEDTRRICELLFS
B2: mouse phosphomannomutase 2 (Pmm2) (enzyme, UniProt Q9Z2M7 1-242, looked up)
chain: MATLCLFDMDGTLTAPRQKITEEMDGFLQKLRQKTKIGVVGGSDFEKLQEQLGNDVVEKYDYVFPENGLVAYKDGKLLCKQNIQGHLGEDVIQDLINYCLSYIANIKLPKKRGTFIEFRNGMLNVSPIGRSCSQEERIEFYELDKKEHIRQKFVADLRKEFAGKGLTFSIGGQISIDVFPEGWDKRYCLRHLEHAGYKTIYFFGDKTMPGGNDHEIFTDPRTVGYTVTAPEDTRRICEGLFP

Target: the molecule itself
Assay: SEC

| Protein | stoichiometry N |
| --- | --- |
| B1 | 2 |
| B2 | 2 |
